These results are taken from patent US5871995.

For assay [1], the target named is phenylalanyl-glycyl-phenylalanyl-hydroxylglycine.
Assay [2] concerns the target phenylalanyl-glycyl-phenylalanyl-glycine.

Bounds are passed on as bounds.

For “Enzyme expressed from plasmid SV-203 (Signal sequence + N-terminal domain + C-terminal domain) in COS-7 cells (from UniProt P14925)”, the Enzyme activity n mole/h/ml medium, PheGlyPhehydroxyGly to PheGlyPhe-NH2 + glyoxylic acid (n mole/h/ml medium) in assay [1] stood at 4.2. This substance displayed an Enzyme activity n mole/h/ml medium, PheGlyPheGly to PheGlyPhehydroxyGly (n mole/h/ml medium) in assay [2] of 2.5.

For “Enzyme expressed from plasmid SV-a (Signal sequence + N-terminal domain) in COS-7 cells (from UniProt P14925)”, in assay [1], the Enzyme activity n mole/h/ml medium, PheGlyPhehydroxyGly to PheGlyPhe-NH2 + glyoxylic acid (n mole/h/ml medium) is less than 2. Also, the Enzyme activity n mole/h/ml medium, PheGlyPheGly to PheGlyPhehydroxyGly (n mole/h/ml medium) in assay [2] turned out to be 2.8.

On to “Enzyme expressed from plasmid SV-b (Signal sequence + C-terminal domain) in COS-7 cells (from UniProt P14925)”, for which the Enzyme activity n mole/h/ml medium, PheGlyPhehydroxyGly to PheGlyPhe-NH2 + glyoxylic acid (n mole/h/ml medium) in assay [1] worked out at 10.8. The substance also had an Enzyme activity n mole/h/ml medium, PheGlyPheGly to PheGlyPhehydroxyGly (n mole/h/ml medium) in assay [2] of 0.4.
